Experimental findings from paper PMC9204313 are described below.

pKd: −log10 of the molar value.

The target of one test is Human fibrinogen (human) (UniProt P02671). Put plainly: BLI; Octet K2; CEP-BSA or fibrinogen amine-coupled to AR2G biosensor; active αD I-domain 50-1000 nM in the mobile phase; 20 mM HEPES, 150 mM NaCl, 1 mM CaCl2, 1 mM MgCl2, 0.02% Tween-20, 0.02% BSA, pH 7.5; KD from a plot of response at equilibrium against concentration. On the technique in general: BLI is a label-free optical method that tracks binding on a fibre tip over time.
Sequence of UniProt P02671 (P02671 36-866, chain 1 of 3): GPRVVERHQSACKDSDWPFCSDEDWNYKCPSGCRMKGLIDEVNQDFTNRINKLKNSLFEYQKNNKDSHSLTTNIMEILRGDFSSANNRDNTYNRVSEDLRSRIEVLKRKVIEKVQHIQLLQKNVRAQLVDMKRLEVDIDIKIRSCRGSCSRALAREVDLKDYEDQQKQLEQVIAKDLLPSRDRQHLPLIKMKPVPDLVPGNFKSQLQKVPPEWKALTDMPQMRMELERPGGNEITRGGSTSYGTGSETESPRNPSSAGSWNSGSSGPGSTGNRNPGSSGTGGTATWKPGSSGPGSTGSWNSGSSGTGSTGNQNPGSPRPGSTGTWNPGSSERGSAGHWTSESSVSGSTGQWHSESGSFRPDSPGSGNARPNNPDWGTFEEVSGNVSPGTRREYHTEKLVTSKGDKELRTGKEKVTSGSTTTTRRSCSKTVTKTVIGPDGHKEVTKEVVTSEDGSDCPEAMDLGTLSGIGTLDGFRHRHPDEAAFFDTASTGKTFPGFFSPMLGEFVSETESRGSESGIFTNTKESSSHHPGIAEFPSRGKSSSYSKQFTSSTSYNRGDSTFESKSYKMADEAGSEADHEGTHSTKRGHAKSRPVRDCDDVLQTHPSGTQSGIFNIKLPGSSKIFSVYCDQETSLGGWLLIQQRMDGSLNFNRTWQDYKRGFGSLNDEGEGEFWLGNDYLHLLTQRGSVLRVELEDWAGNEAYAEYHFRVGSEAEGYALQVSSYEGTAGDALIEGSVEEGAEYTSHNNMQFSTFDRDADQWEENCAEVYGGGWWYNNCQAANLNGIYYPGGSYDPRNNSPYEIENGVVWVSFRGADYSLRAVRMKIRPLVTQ
Sequence of UniProt P02671 (P02675 45-491, chain 2 of 3, further chain): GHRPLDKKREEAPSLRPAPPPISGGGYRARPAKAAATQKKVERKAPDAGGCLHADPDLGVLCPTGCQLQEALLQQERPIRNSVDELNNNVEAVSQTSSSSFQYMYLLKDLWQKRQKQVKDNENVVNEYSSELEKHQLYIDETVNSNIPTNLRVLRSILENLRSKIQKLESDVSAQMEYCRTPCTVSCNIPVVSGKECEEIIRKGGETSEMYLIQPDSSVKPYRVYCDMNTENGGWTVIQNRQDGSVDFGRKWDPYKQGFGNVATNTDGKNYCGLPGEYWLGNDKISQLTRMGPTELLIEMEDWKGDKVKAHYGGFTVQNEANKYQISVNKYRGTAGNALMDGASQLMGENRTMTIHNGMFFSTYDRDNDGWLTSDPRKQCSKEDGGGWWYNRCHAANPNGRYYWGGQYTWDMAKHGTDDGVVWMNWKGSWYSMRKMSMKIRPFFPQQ
Sequence of UniProt P02671 (P02679 27-453, chain 3 of 3, further chain): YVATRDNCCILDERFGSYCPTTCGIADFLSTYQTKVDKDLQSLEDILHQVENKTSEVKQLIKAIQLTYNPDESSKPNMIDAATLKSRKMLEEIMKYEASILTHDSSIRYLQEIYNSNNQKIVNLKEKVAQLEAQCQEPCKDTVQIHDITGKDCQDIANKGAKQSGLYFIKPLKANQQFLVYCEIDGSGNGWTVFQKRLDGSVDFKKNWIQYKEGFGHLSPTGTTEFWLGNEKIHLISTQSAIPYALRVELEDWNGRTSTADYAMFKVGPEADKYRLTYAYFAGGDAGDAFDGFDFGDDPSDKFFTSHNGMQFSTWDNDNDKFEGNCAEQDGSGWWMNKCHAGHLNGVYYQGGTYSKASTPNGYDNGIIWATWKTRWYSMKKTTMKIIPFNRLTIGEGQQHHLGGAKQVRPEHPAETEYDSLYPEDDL

The target in test [1] is CEP-BSA (21:1 molar ratio) (bovine (from the name BSA)) (UniProt P02769). Described as above.

On to “recombinant αD I-domain in an active conformation (domain or fragment)”, for which the values for the pKd (with Human fibrinogen (human); in test [1]) were 6.66 and 7.00, respectively.
